For assay [1], the target named is HLA-A*68:02. The assay is described as follows: IEDB peptide-MHC binding, purified MHC/competitive/radioactivity; filed as Kd, often an IC50 or EC50 that approximates it; ≥ and ≤ were set here for values at or beyond the usual limits of such assays.
For assay [2], the target named is HLA-B*15:01. The description is as above.
Assay [3] deals with HLA-B*58:01. Briefly: IEDB peptide-MHC binding, purified MHC/direct/fluorescence; filed as Kd, often an IC50 or EC50 that approximates it; ≥ and ≤ were set here for values at or beyond the usual limits of such assays. Conditions: source organism: Entamoeba histolytica HM-1:IMSS.
The target of assay [4] is HLA-B*57:01. The description is as above. Conditions: source organism: Entamoeba histolytica HM-1:IMSS.
The target in assay [5] is HLA-B*07:02. The assay is described as follows: IEDB peptide-MHC binding, purified MHC/competitive/radioactivity; filed as Kd, often an IC50 or EC50 that approximates it; ≥ and ≤ were set here for values at or beyond the usual limits of such assays.
Assay [6] deals with HLA-B*35:01. The assay is described as above.
Assay [7] deals with HLA-A*03:01. The assay is described as follows: IEDB peptide-MHC binding, purified MHC/competitive/fluorescence; filed as Kd, often an IC50 or EC50 that approximates it; ≥ and ≤ were set here for values at or beyond the usual limits of such assays.
The target in assay [8] is HLA-A*24:03. Briefly: IEDB peptide-MHC binding, purified MHC/direct/fluorescence; filed as Kd, often an IC50 or EC50 that approximates it; ≥ and ≤ were set here for values at or beyond the usual limits of such assays. Particulars: source organism: Salmonella enterica.
The target in assay [9] is HLA-A*11:01. Briefly: IEDB peptide-MHC binding, purified MHC/competitive/fluorescence; ≥ and ≤ were set here for values at or beyond the usual limits of such assays.
The target of assay [10] is HLA-A*23:01. Briefly: IEDB peptide-MHC binding, purified MHC/competitive/radioactivity; filed as Kd, often an IC50 or EC50 that approximates it; ≥ and ≤ were set here for values at or beyond the usual limits of such assays.
The target in assay [11] is HLA-A*30:02. The description is as above.
Assay [12] addresses HLA-A*26:01. The assay is described as above. Conditions: source organism: Dengue virus 3 Martinique/1243/1999.
Assay [13] deals with HLA-A*01:01. Described as above.
In assay [14] the target is HLA-B*53:01. The description is as above.
For assay [15], the target named is HLA-B*51:01. Described as above.
Assay [16] has as its target HLA-A*32:01. The assay is described as above.
Assay [17] concerns the target HLA-A*02:06. The assay is described as above. Particulars: source organism: Dengue virus 3 Martinique/1243/1999.
The target of assay [18] is HLA-B*51:01. The assay is described as follows: IEDB peptide-MHC binding, purified MHC/competitive/fluorescence; filed as Kd, often an IC50 or EC50 that approximates it; ≥ and ≤ were set here for values at or beyond the usual limits of such assays. Conditions: source organism: West Nile virus.
The target of assay [19] is HLA-A*30:01. Briefly: IEDB peptide-MHC binding, purified MHC/competitive/radioactivity; filed as Kd, often an IC50 or EC50 that approximates it; ≥ and ≤ were set here for values at or beyond the usual limits of such assays. Conditions: source organism: Dengue virus 1 Brazil/97-11/1997.
Setting [20] is: source organism: Dengue virus 1 Brazil/97-11/1997.
Where [21] appears, read: source organism: Vaccinia virus WR.
Setting [22] is: source organism: Dengue virus 2 Jamaica/1409/1983.
Setting [23] is: source organism: Dengue virus 4 Philippines/H241/1956.
[24] abbreviates: source organism: Zaire ebolavirus.
The mark [25] stands for this setting: source organism: Dengue virus 4 Dominica/814669/1981.
Where [26] appears, read: source organism: Dengue virus 3 Martinique/1243/1999.
Where [27] appears, read: source organism: Dengue virus 2 Peru/IQT2913/1996.
Setting [28] is: source organism: Vaccinia virus Copenhagen.

ELDSNLYRI: the Kd in [1] (source organism: Homo sapiens) was determined as 916 nM.

For SQHNYRPGYF, the Kd in [2] (setting [20]) stood at 9.37 nM.

LLAISAVYF: the Kd in [2] (setting [21]) worked out at 31.7 nM.

With TAYEKLWYI, the Kd came out at 130 nM in assay [3] and 650 nM in assay [4].

In the case of WLSLLVPFV, in assay [5] (source organism: Hepatitis B virus), the Kd is no less than 35000 nM.

For the sequence RPGYHTQTAG, in assay [5] (setting [22]), the Kd amounted to 2.1 nM.

For RPLSEKEENM, the Kd is 2030 nM in assay [5] (setting [23]) and no less than 30100 nM in assay [6] (setting [23]).

On to RVYAHDAQH, for which the Kd in [7] (source organism: Pixuna virus) came out at 30.5 nM.

HHQINYHGF showed a Kd in [8] of 965 nM.

Regarding PNRSTKGGQ, the IC50 in assay [9] (setting [24]) came out at 46500 nM.

The sequence NISGQSPAR displayed an IC50 in assay [9] (setting [24]) of 47600 nM.

Regarding ANGSLFTEQ, the IC50 in assay [9] (setting [21]) was no less than 104000 nM.

For the sequence CLIPTVMAF, the Kd in assay [10] (setting [25]) was determined as 81.9 nM; in assay [2] (setting [25]), 0.64 nM.

In the case of ETPNLAERV, the Kd in assay [1] (source organism: Dengue virus 1 Singapore/S275/1990) was 24.8 nM.

MVHQIFGSAY: the Kd in [11] (setting [26]) was no less than 61900 nM; in assay [12], 11.6 nM; in [2] (setting [26]), 37.2 nM; in assay [6] (setting [26]) it was 18 nM.

Take SMANIFRGSY: the Kd in [11] (setting [22]) worked out at 8.95 nM; in [2] (setting [22]), 0.27 nM; in assay [13] (setting [22]), 3250 nM.

For VNIKYNPHI, the Kd in assay [2] (setting [21]) worked out at 141 nM.

Regarding IPTVMAFHL, the Kd in assay [5] (setting [27]) was determined as 596 nM; in assay [14] (setting [27]) it was 48.9 nM; in assay [15] (setting [27]), 5510 nM.

ESHNQTFLI: the Kd in assay [1] (setting [22]) was found to be 3.51 nM.

Turning to FLWWGKWRK, the Kd in assay [7] (source organism: Brucella abortus str. 2308 A) was 3.1 nM.

The sequence KLSSEQLSK displayed a Kd in [7] (source organism: Trypanosoma cruzi) of 108 nM.

SQKTTWLPVL: the Kd in assay [2] (setting [20]) was determined as 91.5 nM.

As to TPPGSRDPF, the Kd came to 9880 nM in assay [5] (setting [22]) and 160 nM in [6] (setting [22]).

For STLPETTVVRR, in [5] (source organism: Hepatitis B virus subtype adw2), the Kd is no less than 35000 nM.

VLMMLVAPSY: the Kd was 26.6 nM in [11] (setting [23]), 10.1 nM in assay [2] (setting [23]) and 1000 nM in [13] (setting [23]).

The sequence RLLHRTTRK yielded a Kd in assay [7] (source organism: Yersinia pestis Nepal516) of 13.3 nM.

Consider LMRSICVSI, for which the Kd in [16] (setting [28]) stood at 380 nM; in [2] (setting [28]), 63.4 nM.

On to AQMWSLMYF, for which the results for the equilibrium dissociation constant (Kd) in assay [17] and in assay [2] (setting [26]) were 12.8 nM and 0.33 nM, respectively.

On to FPYSIPATLL, for which the Kd was 28 nM in assay [5] (setting [26]), 9.97 nM in assay [14] (setting [26]), 325 nM in assay [15] (setting [26]) and 131 nM in assay [6] (setting [26]).

Sequence YKTLCDMIK yielded an IC50 in assay [9] (source organism: Vaccinia virus) of no less than 230000 nM.

Turning to RIKGMSYTM, the results for the Kd in [16] (setting [23]) and in [2] (setting [23]) were 37.4 nM and 32.2 nM, respectively.

Regarding RPAVGGKTV, the Kd in assay [18] was no less than 20000 nM.

Consider KMRPMFAVG, for which the Kd in [19] came to 14.7 nM; in assay [2] (setting [20]), 34.6 nM.

CLIPTAMAF: the Kd worked out at 451 nM in [10] (setting [23]) and 9.43 nM in [2] (setting [23]).

For the origin of these results see the Immune Epitope Database (IEDB).
